Data taken from the supplement of paper PMC9732359.
± gives the uncertainty stated by the source.

Experiment: protein stability index of a GFP-peptide fusion (yeast GPS) (PSI 1-4); higher = more stable; sorted into four equal gates, so the index is relative within each strain
Outline: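 Peptides tiling yeast proteins in 17-residue segments were fused downstream of GFP, with Cherry expressed from the same plasmid. As a pooled library in yeast, mid-log cultures grown in leucine-free medium were sorted into four equal gates by GFP/Cherry fluorescence ratio. Gate plasmids were PCR-amplified and Illumina-sequenced, and barcodes linked reads to strains. Each peptide received a protein stability index equal to the sum of each gate's read frequency times its gate number.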

Sequence | protein stability index (doa10∆) | protein stability index (pdr5∆) | protein stability index (san1∆) | protein stability index (ubr1∆)
QDMEAAKEVYKIHQQLL [GAL11] | 3.41 ± 0.22 | 3.41 ± 0.13 | 3.5 ± 0.11 | 3.41 ± 0.12
ITLALSSNPNSSLHSPT [SRB4] | 2.9 ± 0.067 | 2.99 ± 0.055 | 2.91 ± 0.047 | 3.05 ± 0.044
GDVVLAAAYSHELPRYG [RPL5] | 2.83 ± 0.073 | 2.95 ± 0.068 | 2.99 ± 0.061 | 2.97 ± 0.074
EIFKKGYIKNNKKIYQW [POP6] | 3.46 ± 0.24 | – | – | –
PGVNREINSEMCHIVRK [GRR1] | 3.01 ± 0.096 | 3.05 ± 0.082 | 3.35 ± 0.059 | 3.12 ± 0.052
CDQTKSVPLMINAKNIA [RRP43] | 1.74 ± 0.061 | 2.21 ± 0.078 | 1.53 ± 0.11 | 1.61 ± 0.068
ATLSKLKKKYQIILDRF [SIR3] | 2.32 ± 0.065 | 1.95 ± 0.073 | 1.75 ± 0.12 | 1.71 ± 0.061
WIWDMNVHGSLEPFLLM [BRR2] | 1.61 ± 0.06 | 2.08 ± 0.078 | 1.72 ± 0.2 | 1.81 ± 0.077
EIGPSPTLAGMAQRTLK [FAS2] | 2.392 ± 0.02 | 2.559 ± 0.021 | 2.546 ± 0.021 | 2.45 ± 0.015
KFFIMIVKGNIIDEIKC [POP4] | 1.32 ± 0.055 | 1.47 ± 0.055 | 1.49 ± 0.094 | 1.66 ± 0.056
REHERVILKQILQILDQ [SWP82] | 2.83 ± 0.077 | 2.86 ± 0.066 | 2.84 ± 0.063 | 2.8 ± 0.046
KTAEQVAAERAARKAAN [RPL7A] | 2.94 ± 0.091 | 2.92 ± 0.06 | 2.78 ± 0.062 | 2.56 ± 0.052
KEKESKKDSKPAFSFGI [YLR335W/NUP2] | 2.96 ± 0.077 | 3.01 ± 0.068 | 3.19 ± 0.058 | 3.23 ± 0.059
QLYKARMSIKLLRLASK [POP1] | 1.54 ± 0.064 | 1.39 ± 0.072 | 1.4 ± 0.11 | 1.14 ± 0.048
DRIYMLFHFEEDEGEEL [PRP8] | 1.64 ± 0.065 | 1.49 ± 0.064 | 1.5 ± 0.17 | 1.93 ± 0.057
LLGARHYTPAVDLWSVG [SSN3] | 1.29 ± 0.19 | 1.15 ± 0.19 | – | –
VETILSGKARICIVGGY [FAS2] | 1.33 ± 0.24 | 1.32 ± 0.17 | 1.23 ± 0.16 | 1.14 ± 0.13
YLNLLQEDELDEGTALS [RPB10] | 3.38 ± 0.11 | 3.3 ± 0.13 | 3.4 ± 0.11 | 3.18 ± 0.16
PRGLRSLTTVWAEHLSD [RPL3] | 2.74 ± 0.12 | 2.83 ± 0.17 | – | 2.72 ± 0.16
LTKKEKKEANLFPEQQT [RPL6B] | 3.08 ± 0.073 | 3.21 ± 0.072 | 3.25 ± 0.06 | 3.15 ± 0.049
RKSDQQDVLKGSSASSR [POP1] | 3.29 ± 0.12 | 3.06 ± 0.1 | 3.14 ± 0.071 | 3.31 ± 0.096
STAFQNTPLSLPTRGTL [COR1] | 2.27 ± 0.05 | 2.38 ± 0.038 | 1.97 ± 0.05 | 2.59 ± 0.035
CKQVHDKLTSIQDTLRT [MED7] | 2.68 ± 0.074 | 2.85 ± 0.048 | 2.67 ± 0.044 | 2.81 ± 0.053
TERHIQVGDGLEILIVT [PRE7] | 2.05 ± 0.067 | 1.97 ± 0.07 | 2.63 ± 0.11 | 3.12 ± 0.065
LDIINPGSVEEVDKSKL [YDL116W/NUP84] | 2.94 ± 0.1 | 3.44 ± 0.11 | 3.24 ± 0.13 | 3.53 ± 0.087
VLVSSVTEANIIKLVEG [RPS12] | 2.52 ± 0.12 | 2.58 ± 0.067 | 2.67 ± 0.083 | 2.71 ± 0.072
QQQQQQQVPPLPDELTL [DLS1] | 2.63 ± 0.035 | 2.72 ± 0.038 | 2.727 ± 0.027 | 2.689 ± 0.025

Sequence | protein stability index (doa10∆) | protein stability index (pdr5∆) | protein stability index (san1∆) | protein stability index (ubr1∆)
NSEKFVFLLTTRAGGLG [ISW2] | 1.67 ± 0.26 | 1.4 ± 0.13 | 1.11 ± 0.11 | 1.51 ± 0.12
YGGSRCANCVKERIIRA [RPL34A] | 1.56 ± 0.061 | 2.81 ± 0.074 | 2.44 ± 0.082 | 1.57 ± 0.065
TPTHSDSHEDMKRRRLE [ROX3] | 2.89 ± 0.15 | 3.33 ± 0.15 | 3.14 ± 0.18 | 3.14 ± 0.091
CDLDFPLRENTNVLDVK [YDL116W/NUP84] | 2.72 ± 0.065 | 2.36 ± 0.055 | 2.36 ± 0.077 | 2.56 ± 0.037
WQVIITDDQGRVIDDNN [SIR3] | 3.49 ± 0.11 | 3.43 ± 0.1 | 3.31 ± 0.08 | 3.52 ± 0.073
NNGLPECQVIAAEGLCK [YCG1] | 2.53 ± 0.12 | 3.47 ± 0.16 | 1.65 ± 0.15 | 2.72 ± 0.048
AEDQILANFVAKGFYHT [SRB8] | 2.91 ± 0.092 | 3.25 ± 0.055 | 3.25 ± 0.12 | 3.05 ± 0.065
SNDEKQKAQDVDVSMQD [RPN13] | 3.17 ± 0.091 | 3.27 ± 0.064 | 3.22 ± 0.041 | 3.31 ± 0.044
SGEEKGKKVSGFKDEVL [RPS1B] | 3.4 ± 0.11 | 3.61 ± 0.14 | 3.48 ± 0.11 | 3.46 ± 0.083
MIRLLGSESDDSEGSIK [ECM29] | 2.67 ± 0.21 | – | 2.54 ± 0.26 | 3.4 ± 0.25
LLKLLTRLVQLREFRIT [GRR1] | 1.89 ± 0.053 | 1.27 ± 0.044 | 1.23 ± 0.13 | 1.08 ± 0.052
YKNEDVTALLEQGFKVV [YCS4] | 2.8 ± 0.1 | 3.08 ± 0.1 | 2.93 ± 0.097 | 2.74 ± 0.091
KWGRNQPVNINLDSSIT [YMR129W/POM152] | 2.54 ± 0.094 | 2.7 ± 0.076 | 2.71 ± 0.099 | 2.52 ± 0.07
GNITRGLAVGLALINYG [RPN2] | 1.43 ± 0.17 | 1.22 ± 0.11 | 1.7 ± 0.15 | 1.51 ± 0.086
LRQFKTCPVEVIKRLEA [BRR2] | 2.94 ± 0.18 | 3.23 ± 0.17 | – | 2.81 ± 0.1
LCDIDEVSDFDEMYELT [DIB1] | 2.43 ± 0.19 | 3.08 ± 0.1 | 2.65 ± 0.12 | 1.9 ± 0.16
SGAYSYPDFRHYGLAVD [DIS3] | 1.82 ± 0.047 | 2.56 ± 0.056 | 2.42 ± 0.089 | 2.67 ± 0.043
PELLDSLAILGMNLLSN [SWI1] | 2.1 ± 0.061 | 2.21 ± 0.073 | 2.05 ± 0.079 | 1.92 ± 0.066
KKRMNSNQERCHDEGND [RRI1] | 3.24 ± 0.064 | 3.01 ± 0.068 | 3.06 ± 0.071 | 3.13 ± 0.061
ETDEYISYTSHIEGVVI [RPN1] | 3.13 ± 0.1 | 3.44 ± 0.17 | – | 3.08 ± 0.08
RNNSNNKTSNNNNVTAV [SWI1] | 2.73 ± 0.05 | 2.6 ± 0.054 | 1.74 ± 0.096 | 2.81 ± 0.044
EVKTPKIPLFTFAKSKN [SIR4] | 2.77 ± 0.054 | 2.98 ± 0.06 | 2.57 ± 0.043 | 2.81 ± 0.042
KIKLLTQATSEDGTSAS [RPC19] | 2.61 ± 0.065 | 2.85 ± 0.079 | 2.89 ± 0.062 | 3.11 ± 0.078
KVMNNSFKLCTLLIAIR [YML103C/NUP188] | 1.47 ± 0.063 | 1.69 ± 0.087 | 1.96 ± 0.15 | 1.63 ± 0.09
VEDYLSSVTSDSMKYTI [RPC82] | 3.45 ± 0.22 | 3.03 ± 0.083 | 3.05 ± 0.14 | 3.04 ± 0.093
FVVGVDNVSSQQMHEVR [RPP0] | 2.1 ± 0.078 | 2.74 ± 0.1 | 3.07 ± 0.15 | 2.74 ± 0.08
ESLKKELQIFKTANSSS [YIL149C/MLP2] | 2.78 ± 0.065 | 2.93 ± 0.049 | 2.9 ± 0.059 | 2.61 ± 0.042
